Measured values: publication PMC11794430

Target: HA-tagged Mincle (macrophage-inducible C-type lectin, CLEC4E) (UniProt Q9ULY5)
Test: MST

Sequence of UniProt Q9ULY5 (Q9ULY5 whole entry): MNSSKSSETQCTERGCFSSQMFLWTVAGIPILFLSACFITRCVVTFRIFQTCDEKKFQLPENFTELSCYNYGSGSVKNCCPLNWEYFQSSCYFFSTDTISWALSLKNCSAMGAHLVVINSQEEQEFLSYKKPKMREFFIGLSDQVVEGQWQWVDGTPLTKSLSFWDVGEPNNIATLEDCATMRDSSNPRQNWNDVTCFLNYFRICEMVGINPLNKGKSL

Row | Substance | Kd
1 | Haptoglobin purified from healthy controls (from UniProt P00738 162-406; P00738 19-160) (natural protein) | 22.9 µM
2 | Fucosylated haptoglobin purified from sepsis patients (from UniProt P00738 162-406; P00738 19-160) (natural protein) | 5.7 µM
